Measurements reported in patent US9988424 (DUKE UNIVERSITY, dated 2018).
Substitutions are numbered along the chain they refer to. Like-named read-outs stand apart in the source and are kept apart here.

Legend:
B.Case A2 V1/V2 Tags [1] = target: T1, B.Case A2 V1/V2 Tags; assay: ELISA, OD405
T1 Env construct: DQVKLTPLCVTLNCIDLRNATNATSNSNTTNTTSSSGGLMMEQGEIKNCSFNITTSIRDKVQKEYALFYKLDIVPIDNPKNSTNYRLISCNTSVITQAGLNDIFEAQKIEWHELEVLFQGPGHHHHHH

B.63521 gp140C [2] = assay: ELISA, OD405
Con 6 gp120 [3] = assay: ELISA, OD405
A.9004SS V1V2 Tags [4] = target: T2, A.9004SS V1V2 Tags; assay: ELISA, OD405
T2 Env construct: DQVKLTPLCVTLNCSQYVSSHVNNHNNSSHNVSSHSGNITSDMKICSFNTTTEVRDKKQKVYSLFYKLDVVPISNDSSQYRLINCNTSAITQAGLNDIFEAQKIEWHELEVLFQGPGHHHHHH

B.63521_V1V2 Tags [5] = target: T3, B.63521_V1V2 Tags; assay: ELISA, OD405
T3 Env construct: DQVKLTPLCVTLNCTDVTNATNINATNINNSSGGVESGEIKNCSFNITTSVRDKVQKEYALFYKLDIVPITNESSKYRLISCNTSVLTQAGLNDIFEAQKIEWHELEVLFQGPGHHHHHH

B.62357 140C [6] = target: T4, B.62357 140C; assay: ELISA, OD405
T4 construct: also called B.62357 gp140C

B. 684-6 gp140C [7] = assay: ELISA, OD405
B. 681-7 gp140C [8] = assay: ELISA, OD405
B.040 gp140C = assay: ELISA, OD405
AE.con gp140CF [9] = target: T5, AE.con gp140CF; assay: ELISA, OD405
T5 construct: also called AE.con.env03 gp140CF

B.con gp140CF [10] = target: T6, B.con gp140CF; assay: ELISA, OD405
T6 construct: also called B.con.env03 gp140CF

G.con gp140CF [11] = target: T7, G.con gp140CF; assay: ELISA, OD405
T7 construct: also called G.con.env03 gp140CF

D.9009SA V1V2 Tags [12] = target: T8, D.9009SA V1V2 Tags; assay: ELISA, OD405
T8 Env construct: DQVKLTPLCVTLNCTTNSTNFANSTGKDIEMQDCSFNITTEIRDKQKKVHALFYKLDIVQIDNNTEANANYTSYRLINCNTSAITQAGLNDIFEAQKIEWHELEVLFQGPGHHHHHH

B.Case A2 V1/V2 Tags [13] = target: T1, B.Case A2 V1/V2 Tags; assay: ELISA, OD405
B.63521 gp140C [14] = assay: ELISA, OD405; remark: listed apart in the source
Con 6 gp120 [15] = assay: ELISA, OD405; remark: listed apart in the source
A.9004SS V1V2 Tags [16] = target: T2, A.9004SS V1V2 Tags; assay: ELISA, OD405
B.63521_V1V2 Tags [17] = target: T3, B.63521_V1V2 Tags; assay: ELISA, OD405
B.62357 140C [18] = target: T4, B.62357 140C; assay: ELISA, OD405; remark: listed apart in the source
B. 684-6 gp140C [19] = assay: ELISA, OD405; remark: listed apart in the source
B. 681-7 gp140C [20] = assay: ELISA, OD405; remark: listed apart in the source
AE.con gp140CF [21] = target: T5, AE.con gp140CF; assay: ELISA, OD405; remark: listed apart in the source
B.con gp140CF [22] = target: T6, B.con gp140CF; assay: ELISA, OD405; remark: listed apart in the source
G.con gp140CF [23] = target: T7, G.con gp140CF; assay: ELISA, OD405; remark: listed apart in the source
D.9009SA V1V2 Tags [24] = target: T8, D.9009SA V1V2 Tags; assay: ELISA, OD405
[25] = target: T9, gp70 B.HXB2/BALV1V2/N156QN160Q (murine leukemia virus; HIV-1); assay: ELISA, mAb 0.001-100 ug/ml on coated V1V2 scaffold, OD450
T9 chain: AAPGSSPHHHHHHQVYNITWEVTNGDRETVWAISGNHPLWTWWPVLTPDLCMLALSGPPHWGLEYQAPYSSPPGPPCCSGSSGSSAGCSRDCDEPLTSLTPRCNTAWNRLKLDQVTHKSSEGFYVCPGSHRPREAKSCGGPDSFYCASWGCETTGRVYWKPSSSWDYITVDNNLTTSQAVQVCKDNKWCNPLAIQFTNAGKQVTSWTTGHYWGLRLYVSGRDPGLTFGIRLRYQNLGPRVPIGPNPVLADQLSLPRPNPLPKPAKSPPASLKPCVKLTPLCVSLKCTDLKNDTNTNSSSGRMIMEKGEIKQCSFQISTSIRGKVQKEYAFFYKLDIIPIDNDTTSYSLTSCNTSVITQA

gp70 B.HXB2/BALV1V2 = target: T10, gp70 B.HXB2/BALV1V2 (murine leukemia virus; HIV-1); assay: as above
T10 chain: T9 chain with Q311N, Q315N

B1: PG9 reverted unmutated ancestor antibody (antibody, V domains shown)
VH: QVQLVESGGGVVQPGRSLRLSCAASGFTFSSYGMHWVRQAPGKGLEWVAVISYDGSNKYYADSVKGRFTISRDNSKNTLYLQMNSLRAEDTAVYYCAREAGGPDYRNGYNYYDFWSGYYNYYYMDVWGKGTTVTVSS
VL: QSALTQPASVSGSPGQSITISCTGTSSDVGSYNLVSWYQQHPGKAPKLMIYEVSKRPSGVSNRFSGSKSGNTASLTISGLQAEDEADYYCCSLTSTRRWVFGGGTKLTVL
notes: also called PG9 RUA; PG9_RUA
B1: no binding (tested: 10 ug/ml) (B.Case A2 V1/V2 Tags [1]); no binding (tested: 10 ug/ml) (B.63521 gp140C [2]); no binding (tested: 10 ug/ml) (Con 6 gp120 [3]). B1: no binding (tested: 10 ug/ml) (A.9004SS V1V2 Tags [4]); no binding (tested: 10 ug/ml) (B.63521_V1V2 Tags [5]); no binding (tested: 10 ug/ml) (B.62357 140C [6]). B1: no binding (tested: 10 ug/ml) (B. 684-6 gp140C [7]); no binding (tested: 10 ug/ml) (B. 681-7 gp140C [8]); no binding (tested: 10 ug/ml) (B.040 gp140C). B1: no binding (tested: 10 ug/ml) (AE.con gp140CF [9]); no binding (tested: 10 ug/ml) (B.con gp140CF [10]); no binding (tested: 10 ug/ml) (G.con gp140CF [11]). B1: no binding (tested: 10 ug/ml) (D.9009SA V1V2 Tags [12]).

B2: PG16 reverted unmutated ancestor antibody (antibody, V domains shown)
VH: B1 VH with D104I, Y105W, R106H, N107D, G108D, Y109V, N110K, W115N, S116D, N120Y
VL: B1 VL with S95D, T96R, R97S, R98H, W99R, V100I
notes: also called PG16 RUA; PG16_RUA
B2: no binding (tested: 10 ug/ml) (B.Case A2 V1/V2 Tags [13]); no binding (tested: 10 ug/ml) (B.63521 gp140C [14]); no binding (tested: 10 ug/ml) (Con 6 gp120 [15]). B2: no binding (tested: 10 ug/ml) (A.9004SS V1V2 Tags [16]); no binding (tested: 10 ug/ml) (B.63521_V1V2 Tags [17]); no binding (tested: 10 ug/ml) (B.62357 140C [18]). B2: no binding (tested: 10 ug/ml) (B. 684-6 gp140C [19]); no binding (tested: 10 ug/ml) (B. 681-7 gp140C [20]); no binding (tested: 10 ug/ml) (AE.con gp140CF [21]). B2: no binding (tested: 10 ug/ml) (B.con gp140CF [22]); no binding (tested: 10 ug/ml) (G.con gp140CF [23]); no binding (tested: 10 ug/ml) (D.9009SA V1V2 Tags [24]).

B3: PG16 (antibody, V domains shown)
VH: QEQLVESGGGVVQPGGSLRLSCLASGFTFHKYGMHWVRQAPGKGLEWVALISDDGMRKYHSDSMWGRVTISRDNSKNTLYLQFSSLKVEDTAMFFCAREAGGPIWHDDVKYYDFNDGYYNYHYMDVWGKGTTVTVSS
VL: QSALTQPASVSGSPGQTITISCNGTSSDVGGFDSVSWYQQSPGKAPKVMVFDVSHRPSGISNRFSGSKSGNTASLTISGLHIEDEGDYFCSSLTDRSHRIFGGGTKVTVL
notes: also called mAb PG16; bnAb PG16
B3: no binding (tested: 100 ug/ml) [25]; no binding (tested: 100 ug/ml) (gp70 B.HXB2/BALV1V2).
